Tested on: peptide library, one residue held at a place counted from the S/T acceptor
Test: relative phosphorylation of the sub-library (ratio to the mean residue at this position); higher = residue favoured
Summary of the method: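 Relative sub-library phosphorylation is a ratio to the mean residue at the same position. Purified recombinant kinases were incubated under kinase-specific conditions with biotinylated degenerate peptide sub-libraries, each fixing one residue at one position around a central Ser/Thr, using 50 μM peptide and 50 μM ATP spiked with γ-32P-ATP for 90 min. Spots captured on streptavidin membranes were phosphorimaged and quantified by densitometry.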

Sequence of RPS6KA1, construct: Full length, human (Q15418 whole entry, looked up): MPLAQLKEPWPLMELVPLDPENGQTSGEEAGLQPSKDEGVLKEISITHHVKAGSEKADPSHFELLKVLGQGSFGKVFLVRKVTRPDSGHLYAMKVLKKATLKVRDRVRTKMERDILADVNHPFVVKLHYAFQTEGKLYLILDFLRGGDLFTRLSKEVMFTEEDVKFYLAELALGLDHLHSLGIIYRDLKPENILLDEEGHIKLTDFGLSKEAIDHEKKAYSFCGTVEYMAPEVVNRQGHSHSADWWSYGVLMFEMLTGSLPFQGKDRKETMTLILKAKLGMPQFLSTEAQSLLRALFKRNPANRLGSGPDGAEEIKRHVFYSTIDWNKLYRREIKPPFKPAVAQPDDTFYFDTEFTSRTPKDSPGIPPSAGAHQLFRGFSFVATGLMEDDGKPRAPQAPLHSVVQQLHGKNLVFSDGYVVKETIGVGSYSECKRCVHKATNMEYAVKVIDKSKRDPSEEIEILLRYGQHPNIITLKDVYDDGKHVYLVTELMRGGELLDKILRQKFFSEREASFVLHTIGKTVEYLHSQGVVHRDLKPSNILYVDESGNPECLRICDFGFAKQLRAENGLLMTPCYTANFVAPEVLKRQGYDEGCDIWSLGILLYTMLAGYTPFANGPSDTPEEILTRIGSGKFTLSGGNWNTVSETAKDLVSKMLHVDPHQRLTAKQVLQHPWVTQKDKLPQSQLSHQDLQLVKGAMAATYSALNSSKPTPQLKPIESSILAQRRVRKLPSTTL
Sequence of NEK2, construct: Full length, human (P51955 whole entry, looked up): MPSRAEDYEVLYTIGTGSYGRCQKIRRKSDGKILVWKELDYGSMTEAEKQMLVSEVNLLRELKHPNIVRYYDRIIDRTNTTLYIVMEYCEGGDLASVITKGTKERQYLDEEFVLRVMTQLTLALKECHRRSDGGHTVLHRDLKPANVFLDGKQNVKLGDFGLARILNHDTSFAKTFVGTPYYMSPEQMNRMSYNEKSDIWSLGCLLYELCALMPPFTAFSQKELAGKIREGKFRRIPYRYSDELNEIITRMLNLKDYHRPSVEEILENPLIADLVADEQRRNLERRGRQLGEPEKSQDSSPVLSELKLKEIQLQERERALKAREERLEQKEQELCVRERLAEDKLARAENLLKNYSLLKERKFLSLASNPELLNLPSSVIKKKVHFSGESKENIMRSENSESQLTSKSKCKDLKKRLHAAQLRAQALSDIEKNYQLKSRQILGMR

NEK2, construct: Full length, human (from UniProt P51955)
relative phosphorylation
Conditions | at +1 | at +2 | at +3 | at +4 | at -1 | at -2 | at -3 | at -4 | at -5
A fixed | 0.655 | 1.03 | 0.897 | 0.958 | 1.25 | 1.5 | 1.09 | 1.06 | 1.3
D fixed | 0.189 | 0.318 | 0.782 | 0.806 | 0.644 | 0.552 | 0.307 | 0.772 | 0.938
E fixed | 0.203 | 0.195 | 0.916 | 0.811 | 0.81 | 0.438 | 0.301 | 0.73 | 0.694
F fixed | 1.19 | 0.835 | 0.878 | 0.906 | 0.783 | 1.2 | 2.37 | 1.2 | 1.3
G fixed | 0.656 | 0.834 | 1.06 | 1.12 | 0.959 | 1.29 | 1.23 | 1.29 | 1.14
H fixed | 1.03 | 1.43 | 1.08 | 1.04 | 1.03 | 1.16 | 1.07 | 1.11 | 1
I fixed | 1.5 | 0.624 | 0.864 | 0.775 | 0.561 | 0.636 | 0.466 | 0.818 | 0.767
K fixed | 0.846 | 1.69 | 1.18 | 1.4 | 1.53 | 1.42 | 0.638 | 1.07 | 1.19
L fixed | 1.79 | 0.638 | 1.06 | 0.949 | 0.917 | 0.799 | 1.89 | 1.04 | 0.828
M fixed | 2.1 | 0.873 | 0.899 | 0.875 | 1.4 | 1.11 | 1.77 | 0.964 | 0.862
N fixed | 0.85 | 0.888 | 1.02 | 0.964 | 1.04 | 0.989 | 0.733 | 0.931 | 0.884
P fixed | 0.151 | 0.771 | 1.08 | 1.14 | 0.23 | 0.405 | 0.965 | 0.963 | 1.04
Q fixed | 1.26 | 0.696 | 0.874 | 1.06 | 1.21 | 0.852 | 0.661 | 0.881 | 0.81
R fixed | 1.26 | 3.71 | 1.5 | 1.45 | 1.98 | 1.75 | 0.77 | 0.902 | 1.18
V fixed | 1.18 | 0.71 | 0.875 | 0.745 | 0.743 | 0.65 | 0.48 | 0.828 | 0.934
W fixed | 0.983 | 0.748 | 0.916 | 1.14 | 0.85 | 1.06 | 1.11 | 1.44 | 1.1
Y fixed | 1.17 | 1.01 | 1.13 | 0.874 | 1.08 | 1.19 | 1.15 | 1.01 | 1.03
pThr fixed | 0.425 | 0.383 | 0.557 | 0.688 | 0.278 | 0.449 | 0.545 | 0.747 | 0.658
pTyr fixed | 0.547 | 0.275 | 0.758 | 0.62 | 0.697 | 0.525 | 0.752 | 0.642 | 0.66

RPS6KA1, construct: Full length, human (from UniProt Q15418)
relative phosphorylation
Conditions | at +1 | at +2 | at +3 | at +4 | at -1 | at -2 | at -3 | at -4 | at -5
A fixed | 0.899 | 1.02 | 0.983 | 0.839 | 0.926 | 0.75 | 0.694 | 1.2 | 0.916
D fixed | 0.459 | 0.887 | 1.1 | 1.25 | 0.593 | 0.724 | 0.524 | 0.574 | 0.439
E fixed | 0.784 | 0.691 | 1.13 | 1.03 | 0.408 | 0.614 | 0.424 | 0.703 | 0.364
F fixed | 1.09 | 0.767 | 1 | 0.816 | 0.796 | 0.684 | 0.365 | 0.817 | 0.822
G fixed | 0.654 | 0.939 | 1.08 | 0.985 | 1.19 | 1.2 | 0.737 | 1.22 | 0.977
H fixed | 1.15 | 1.55 | 1.24 | 1.05 | 1.06 | 1.14 | 0.549 | 0.857 | 0.935
I fixed | 1.3 | 1.05 | 0.853 | 0.76 | 0.404 | 0.546 | 0.331 | 0.931 | 0.849
K fixed | 0.881 | 0.77 | 0.686 | 1.14 | 1.21 | 1.86 | 1.32 | 1.63 | 1.84
L fixed | 0.969 | 0.816 | 1.05 | 0.785 | 0.942 | 1.14 | 0.388 | 0.895 | 1.18
M fixed | 1.1 | 0.774 | 0.93 | 0.791 | 1.04 | 0.897 | 0.487 | 1.05 | 0.72
N fixed | 1.02 | 1.04 | 0.822 | 1.01 | 1.14 | 0.732 | 0.506 | 0.722 | 0.67
P fixed | 0.625 | 0.615 | 0.914 | 1.47 | 2.71 | 0.581 | 0.76 | 0.979 | 0.993
Q fixed | 1.39 | 0.817 | 0.94 | 1.21 | 0.997 | 1.15 | 0.538 | 0.83 | 0.696
R fixed | 1.07 | 1.2 | 0.875 | 0.914 | 1.25 | 3.29 | 8.19 | 2.05 | 2.91
V fixed | 1.62 | 1.14 | 0.801 | 0.819 | 0.592 | 0.441 | 0.315 | 0.79 | 0.75
W fixed | 0.884 | 1.16 | 1.34 | 1.16 | 0.739 | 0.597 | 0.482 | 0.978 | 1.1
Y fixed | 1.1 | 1.77 | 1.26 | 0.969 | 1.01 | 0.649 | 0.39 | 0.779 | 0.841
pThr fixed | 1.51 | 0.917 | 1.17 | 1.95 | 0.284 | 0.293 | 0.348 | 0.573 | 0.527
pTyr fixed | 1.32 | 0.957 | 1.59 | 1.17 | 0.522 | 0.33 | 0.332 | 0.413 | 0.526
